Substrate in this data set: CC(C)(CO)[C@@H](O)C(=O)NCCC(=O)O
The experiment in a line: Kinetic assay of pantetheine analogs as substrates of PanK. It is filed as biochemical. The note with it: other: compound as substrate of E. coli PanK. The procedure:
As mentioned earlier, phosphorylation of the primary hydroxyl group of pantothenate by the first protein in the CoA biosynthesis pathway, PanK, is believed to be the rate limiting step in vivo. Jackowski and Rock, J. Bacteria 148:926, 1981. Due to its role as the gatekeeper of CoA biosynthesis, each of the new analogs was assayed for kinetic activity with PanK (Table 2).
The assay was performed as previously described using the prototypical bacterial PanK, CoAA from E. coli. Kumar and Aldrich, Org. Lett. 5:613, 2003. The reaction of CoAA with the natural substrate pantothenate gave values that conformed to those previously reported in the literature. Worthington and Burkart, Org. Biomol. Chem. 4:44, 2005; Strauss and Begley, J. Biol. Chem. 277:48205, 2002. […] Conversely, compounds with PEG linkers between the pantoic acid moiety and the bioorthogonal terminus were poor substrates for CoAA.

B1: E. coli PanK (CoAA) (Escherichia coli K-12) (protein)
chain: MSIKEQTLMTPYLQFDRNQWAALRDSVPMTLSEDEIARLKGINEDLSLEEVAEIYLPLSRLLNFYISSNLRRQAVLEQFLGTNGQRIPYIISIAGSVAVGKSTTARVLQALLSRWPEHRRVELITTDGFLHPNQVLKERGLMKKKGFPESYDMHRLVKFVSDLKSGVPNVTAPVYSHLIYDVIPDGDKTVVQPDILILEGLNVLQSGMDYPHDPHHVFVSDFVDFSIYVDAPEDLLQTWYINRFLKFREGAFTDPDSYFHNYAKLTKEEAIKTAMTLWKEINWLNLKQNILPTRERASLILTKSANHAVEEVRLRK
For the protein B1, the Km (commonly the substrate concentration at which the rate is half of its maximum) was 28.56 ± 1.77 µM; the turnover number (kcat) (usually the number of substrate molecules converted per active site and unit of time at saturation) amounted to 0.521 ± 0.00967 s⁻¹; the kcat/Km (usually the second-order rate constant that governs catalysis at low substrate concentration) turned out to be 18200 ± 680 M⁻¹ s⁻¹.

The values above are taken from patent US8119364B2, “Methods for generating analogs of coenzyme A” (The Regents of the University of California, priority 2005, dated 2012).
